# Measurements: the supplement of paper PMC5998384
# Columns and labels:
# HeLa Kyoto [1] = assay: melting temperature (median over replicates), in situ; higher = more thermally stable
# HeLa Kyoto [2] = assay: solubility in G1/S (NP-40 vs SDS abundance) (log2 ratio); higher = more soluble; details: cell cycle stage: G1/S
# HeLa Kyoto [3] = assay: solubility change mitosis vs G1/S (difference of NP-40 vs SDS log2 ratios) (log2 ratio difference); higher = more soluble in mitosis
# HeLa Kyoto [4] = assay: thermal stability score vs G1/S (z-score of summed log2 fold changes over temperatures); higher = more thermally stable than in G1/S
# [5] = cell cycle stage: early G1 (4.5 h after nocodazole release)
# 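Wherever melting temperature (median over replicates), in situ is given: HeLa Kyoto cells synchronized by double thymidine or nocodazole block, proteins quantified by TMT10plex mass spectrometry, three independent biological replicates.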
# 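Wherever solubility change mitosis vs G1/S (difference of NP-40 vs SDS log2 ratios) is given: synchronized HeLa Kyoto cells (double thymidine block for G1/S, nocodazole release for mitosis), protein amounts in NP-40 versus SDS lysates quantified by mass spectrometry, three biological replicates.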
# 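Wherever solubility in G1/S (NP-40 vs SDS abundance) is given: HeLa Kyoto cells arrested at G1/S by double thymidine block, proteins quantified by TMT10plex mass spectrometry in mild NP-40 versus SDS extracts, three biological replicates.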
# 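Wherever thermal stability score vs G1/S (z-score of summed log2 fold changes over temperatures) is given: synchronized HeLa Kyoto cells, proteins quantified by TMT10plex mass spectrometry, three biological replicates, mitosis taken 0.5 h after nocodazole release, G1/S directly after double thymidine block.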
sequence,measurement,setting,value
MPLELELCPGRWVGGQHPCFIIAEIGQNHQGDLDVAKRMIRMAKECGADCAKFQKSELEFKFNRKALERPYTSKHSWGKTYGEHKRHLEFSHDQYRELQRYAEEVGIFFTASGMDEMAVEFLHELNVPFFKVGSGDTNNFPYLEKTAKKGRPMVISSGMQSMDTMKQVYQIVKPLNPNFCFLQCTSAYPLQPEDVNLRVISEYQKLFPDIPIGYSGHETGIAISVAAVALGAKVLERHITLDKTWKGSDHSASLEPGELAELVRSVRLVERALGSPTKQLLPCEMACNEKLGKSVVAKVKIPEGTILTMDMLTVKVGEPKGYPPEDIFNLVGKKVLVTVEEDDTIMEELVDNHGKKIKS [NANS],melting temperature,HeLa Kyoto [1]; cell cycle stage: G1/S,53 °C
same,melting temperature,HeLa Kyoto [1]; cell cycle stage: mitosis,52.3 °C
same,solubility in G1/S (log2),HeLa Kyoto [2],0.172
same,solubility change mitosis (log2),HeLa Kyoto [3],-0.108
same,thermal stability score,HeLa Kyoto [4]; [5],-1.59
same,thermal stability score,HeLa Kyoto [4]; cell cycle stage: mitosis,-2.55
MPLFFRKRKPSEEARKRLEYQMCLAKEAGADDILDISKCELSEIPFGAFATCKVLQKKVLIVHTNHLTSLLPKSCSLLSLATIKVLDLHDNQLTALPDDLGQLTALQVLNVERNQLMQLPRSIGNLTQLQTLNVKDNKLKELPDTVGELRSLRTLNISGNEIQRLPQMLAHVRTLEMLSLDASAMVYPPREVCGAGTAAILQFLCKESGLEYYPPSQYLLPILEQDGIENSRDSPDGPTDRFSREELEWQNRFSDYEKRKEQKMLEKLEFERRLELGQREHTQLLQQSSSQKDEILQTVKEEQSRLEQGLSEHQRHLNAERQRLQEQLKQTEQNISSRIQKLLQDNQRQKKSSEILKSLENERIRMEQLMSITQEETESLRRRDVASAMQQMLTESCKNRLIQMAYESQRQNLVQQACSSMAEMDERFQQILSWQQMDQNKAISQILQESAMQKAAFEALQVKKDLMHRQIRSQIKLIETELLQLTQLELKRKSLDTESLQEMISEQRWALSSLLQQLLKEKQQREEELREILTELEAKSETRQENYWLIQYQRLLNQKPLSLKLQEEGMERQLVALLEELSAEHYLPIFAHHRLSLDLLSQMSPGDLAKVGVSEAGLQHEILRRVQELLDAARIQPELKPPMGEVVTPTAPQEPPESVRPSAPPAELEVQASECVVCLEREAQMIFLNCGHVCCCQQCCQPLRTCPLCRQDIAQRLRIYHSS [LRSAM1],melting temperature,HeLa Kyoto [1]; cell cycle stage: G1/S,51 °C
same,melting temperature,HeLa Kyoto [1]; cell cycle stage: mitosis,50.9 °C
same,solubility in G1/S (log2),HeLa Kyoto [2],0.149
same,solubility change mitosis (log2),HeLa Kyoto [3],-0.0589
same,thermal stability score,HeLa Kyoto [4]; [5],0.0283
same,thermal stability score,HeLa Kyoto [4]; cell cycle stage: mitosis,0.57
MPLNRTLSMSSLPGLEDWEDEFDLENAVLFEVAWEVANKVGGIYTVLQTKAKVTGDEWGDNYFLVGPYTEQGVRTQVELLEAPTPALKRTLDSMNSKGCKVYFGRWLIEGGPLVVLLDVGASAWALERWKGELWDTCNIGVPWYDREANDAVLFGFLTTWFLGEFLAQSEEKPHVVAHFHEWLAGVGLCLCRARRLPVATIFTTHATLLGRYLCAGAVDFYNNLENFNVDKEAGERQIYHRYCMERAAAHCAHVFTTVSQITAIEAQHLLKRKPDIVTPNGLNVKKFSAMHEFQNLHAQSKARIQEFVRGHFYGHLDFNLDKTLYFFIAGRYEFSNKGADVFLEALARLNYLLRVNGSEQTVVAFFIMPARTNNFNVETLKGQAVRKQLWDTANTVKEKFGRKLYESLLVGSLPDMNKMLDKEDFTMMKRAIFATQRQSFPPVCTHNMLDDSSDPILTTIRRIGLFNSSADRVKVIFHPEFLSSTSPLLPVDYEEFVRGCHLGVFPSYYEPWGYTPAECTVMGIPSISTNLSGFGCFMEEHIADPSAYGIYILDRRFRSLDDSCSQLTSFLYSFCQQSRRQRIIQRNRTERLSDLLDWKYLGRYYMSARHMALSKAFPEHFTYEPNEADAAQGYRYPRPASVPPSPSLSRHSSPHQSEDEEDPRNGPLEEDGERYDEDEEAAKDRRNIRAPEWPRRASCTSSTSGSKRNSVDTATSSSLSTPSEPLSPTSSLGEERN [GYS1],melting temperature,HeLa Kyoto [1]; cell cycle stage: G1/S,54.5 °C
same,melting temperature,HeLa Kyoto [1]; cell cycle stage: mitosis,55.2 °C
same,solubility in G1/S (log2),HeLa Kyoto [2],-0.205
same,solubility change mitosis (log2),HeLa Kyoto [3],-0.314
same,thermal stability score,HeLa Kyoto [4]; [5],2.32
same,thermal stability score,HeLa Kyoto [4]; cell cycle stage: mitosis,2.69
MPLSRWLRSVGVFLLPAPYWAPRERWLGSLRRPSLVHGYPVLAWHSARCWCQAWTEEPRALCSSLRMNGDQNSDVYAQEKQDFVQHFSQIVRVLTEDEMGHPEIGDAIARLKEVLEYNAIGGKYNRGLTVVVAFRELVEPRKQDADSLQRAWTVGWCVELLQAFFLVADDIMDSSLTRRGQICWYQKPGVGLDAINDANLLEACIYRLLKLYCREQPYYLNLIELFLQSSYQTEIGQTLDLLTAPQGNVDLVRFTEKRYKSIVKYKTAFYSFYLPIAAAMYMAGIDGEKEHANAKKILLEMGEFFQIQDDYLDLFGDPSVTGKIGTDIQDNKCSWLVVQCLQRATPEQYQILKENYGQKEAEKVARVKALYEELDLPAVFLQYEEDSYSHIMALIEQYAAPLPPAVFLGLARKIYKRRK [FDPS],melting temperature,HeLa Kyoto [1]; cell cycle stage: G1/S,50.8 °C
same,melting temperature,HeLa Kyoto [1]; cell cycle stage: mitosis,51 °C
same,solubility in G1/S (log2),HeLa Kyoto [2],0.151
same,solubility change mitosis (log2),HeLa Kyoto [3],-0.0646
same,thermal stability score,HeLa Kyoto [4]; [5],2.88
same,thermal stability score,HeLa Kyoto [4]; cell cycle stage: mitosis,3.37
MPNWGGGKKCGVCQKTVYFAEEVQCEGNSFHKSCFLCMVCKKNLDSTTVAVHGEEIYCKSCYGKKYGPKGYGYGQGAGTLSTDKGESLGIKHEEAPGHRPTTNPNASKFAQKIGGSERCPRCSQAVYAAEKVIGAGKSWHKACFRCAKCGKGLESTTLADKDGEIYCKGCYAKNFGPKGFGFGQGAGALVHSE [CSRP1],melting temperature,HeLa Kyoto [1]; cell cycle stage: G1/S,60.2 °C
same,solubility in G1/S (log2),HeLa Kyoto [2],-0.0793
same,solubility change mitosis (log2),HeLa Kyoto [3],-0.142
same,thermal stability score,HeLa Kyoto [4]; [5],-1.5
same,thermal stability score,HeLa Kyoto [4]; cell cycle stage: mitosis,-2.91
MPPKKQAQAGGSKKAEQKKKEKIIEDKTFGLKNKKGAKQQKFIKAVTHQVKFGQQNPRQVAQSEAEKKLKKDDKKKELQELNELFKPVVAAQKISKGADPKSVVCAFFKQGQCTKGDKCKFSHDLTLERKCEKRSVYIDARDEELEKDTMDNWDEKKLEEVVNKKHGEAEKKKPKTQIVCKHFLEAIENNKYGWFWVCPGGGDICMYRHALPPGFVLKKDKKKEEKEDEISLEDLIERERSALGPNVTKITLESFLAWKKRKRQEKIDKLEQDMERRKADFKAGKALVISGREVFEFRPELVNDDDEEADDTRYTQGTGGDEVDDSVSVNDIDLSLYIPRDVDETGITVASLERFSTYTSDKDENKLSEASGGRAENGERSDLEEDNEREGTENGAIDAVPVDENLFTGEDLDELEEELNTLDLEE [ZC3H15],melting temperature,HeLa Kyoto [1]; cell cycle stage: G1/S,54.1 °C
same,melting temperature,HeLa Kyoto [1]; cell cycle stage: mitosis,53.6 °C
same,solubility in G1/S (log2),HeLa Kyoto [2],-0.131
same,solubility change mitosis (log2),HeLa Kyoto [3],-0.0422
same,thermal stability score,HeLa Kyoto [4]; [5],0.581
same,thermal stability score,HeLa Kyoto [4]; cell cycle stage: mitosis,-2.59
